Measured values as given in IntAct's records for PubMed 23357641.

B1: Nephronectin (Mus musculus), Q91V88 (parent)
chain: MAVLLAAVLASSLYLQVAADFDGRWPRQIVSSIGLCRYGGRIDCCWGWARQSWGQCQPVCQPQCKHGECVGPNKCKCHPGFAGKTCNQDLNECGLKPRPCKHRCMNTFGSYKCYCLNGYMLLPDGSCSSALSCSMANCQYGCDVVKGQVRCQCPSPGLQLAPDGRTCVDIDECATGRVSCPRFRQCVNTFGSYICKCHTGFDLMYIGGKYQCHDIDECSLGQHQCSSYARCYNIHGSYKCQCRDGYEGDGLNCVYIPKVMIEPSGPIHMPERNGTISKGDGGHANRIPDAGSTRWPLKTPYIPPVITNRPTSKPTTRPTPNPTPQPTPPPPPPLPTEPRTTPLPPTPERPSTRPTTIAPATSTTTRVITVDNRIQTDPQKPRGDVFIPRQPTNDLFEIFEIERGVSADEEVKDDPGILIHSCNFDHGLCGWIREKDSDLHWETARDPAGGQYLTVSAAKAPGGKAARLVLRLGHLMHSGDLCLSFRHKVTGLHSGTLQVFVRKHGTHGAALWGRNGGHGWRQTQITLRGADVKSVIFKGEKRRGHTGEIGLDDVSLKRGRC

Variants of: B1
Conditions: with agrin_human AGRN

Effect of a mutation on the interaction, decreasing interaction:
MAVLLAAVLASSLYLQVAADFDGRWPRQIVSSIGLCRYGGRIDCCWGWARQSWGQCQPVCQPQCKHGECVGPNKCKCHPGFAGKTCNQDLNECGLKPRPCKHRCMNTFGSYKCYCLNGYMLLPDGSCSSALSCSMANCQYGCDVVKGQVRCQCPSPGLQLAPDGRTCVDIDECATGRVSCPRFRQCVNTFGSYICKCHTGFDLMYIGGKYQCHDIDECSLGQHQCSSYARCYNIHGSYKCQCRDGYEGDGLNCVYIPKVMIEPSGPIHMPERNGTISKGDGGHANRIPDAGSTRWPLKTPYIPPVITNRPTSKPTTRPTPNPTPQPTPPPPPPLPTEPRTTPLPPTPERPSTRPTTIAPATSTTTRVITVDNRIQTDPQKPRGDVFIPRQPTNDLFEIFEIERGVSADEEVKDDPGILIHSCNFDHGLCGWIREKDSDLHWETARDPAGGQYLTVSAAKAPGGKAARLVLRLGHLMHSGDLCLSFRHKVTGLHSGTLQVFVRKHGTHGAALWGRNGGHGWRQTQITLRGADVKSVIFKGEAAAGHTGEIGLDDVSLKRGRC [K541A;R542A;R543A]
MAVLLAAVLASSLYLQVAADFDGRWPRQIVSSIGLCRYGGRIDCCWGWARQSWGQCQPVCQPQCKHGECVGPNKCKCHPGFAGKTCNQDLNECGLKPRPCKHRCMNTFGSYKCYCLNGYMLLPDGSCSSALSCSMANCQYGCDVVKGQVRCQCPSPGLQLAPDGRTCVDIDECATGRVSCPRFRQCVNTFGSYICKCHTGFDLMYIGGKYQCHDIDECSLGQHQCSSYARCYNIHGSYKCQCRDGYEGDGLNCVYIPKVMIEPSGPIHMPERNGTISKGDGGHANRIPDAGSTRWPLKTPYIPPVITNRPTSKPTTRPTPNPTPQPTPPPPPPLPTEPRTTPLPPTPERPSTRPTTIAPATSTTTRVITVDNRIQTDPQKPRGDVFIPRQPTNDLFEIFEIERGVSADEEVKDDPGILIHSCNFDHGLCGWIREKDSDLHWETARDPAGGQYLTVSAAKAPGGKAARLVLRLGHLMHSGDLCLSFRHKVTGLHSGTLQVFVAAAGTHGAALWGRNGGHGWRQTQITLRGADVKSVIFKGEKRRGHTGEIGLDDVSLKRGRC [R502A;K503A;H504A]
MAVLLAAVLASSLYLQVAADFDGRWPRQIVSSIGLCRYGGRIDCCWGWARQSWGQCQPVCQPQCKHGECVGPNKCKCHPGFAGKTCNQDLNECGLKPRPCKHRCMNTFGSYKCYCLNGYMLLPDGSCSSALSCSMANCQYGCDVVKGQVRCQCPSPGLQLAPDGRTCVDIDECATGRVSCPRFRQCVNTFGSYICKCHTGFDLMYIGGKYQCHDIDECSLGQHQCSSYARCYNIHGSYKCQCRDGYEGDGLNCVYIPKVMIEPSGPIHMPERNGTISKGDGGHANRIPDAGSTRWPLKTPYIPPVITNRPTSKPTTRPTPNPTPQPTPPPPPPLPTEPRTTPLPPTPERPSTRPTTIAPATSTTTRVITVDNRIQTDPQKPRGDVFIPRQPTNDLFEIFEIERGVSADEEVKDDPGILIHSCNFDHGLCGWIREKDSDLHWETARDPAGGQYLTVSAAAAPGGAAARLVLRLGHLMHSGDLCLSFRHKVTGLHSGTLQVFVRKHGTHGAALWGRNGGHGWRQTQITLRGADVKSVIFKGEKRRGHTGEIGLDDVSLKRGRC [K459A;K464A]
MAVLLAAVLASSLYLQVAADFDGRWPRQIVSSIGLCRYGGRIDCCWGWARQSWGQCQPVCQPQCKHGECVGPNKCKCHPGFAGKTCNQDLNECGLKPRPCKHRCMNTFGSYKCYCLNGYMLLPDGSCSSALSCSMANCQYGCDVVKGQVRCQCPSPGLQLAPDGRTCVDIDECATGRVSCPRFRQCVNTFGSYICKCHTGFDLMYIGGKYQCHDIDECSLGQHQCSSYARCYNIHGSYKCQCRDGYEGDGLNCVYIPKVMIEPSGPIHMPERNGTISKGDGGHANRIPDAGSTRWPLKTPYIPPVITNRPTSKPTTRPTPNPTPQPTPPPPPPLPTEPRTTPLPPTPERPSTRPTTIAPATSTTTRVITVDNRIQTDPQKPRGDVFIPRQPTNDLFEIFEIERGVSADEEVKDDPGILIHSCNFDHGLCGWIREKDSDLHWETARDPAGGQYLTVSAAKAPGGKAARLVLRLGHLMHSGDLCLSFRHKVTGLHSGTLQVFVRKHGTHGAALWGRNGGHGWRQTQITLRGADVKSVIFKGEKRRGHTGEIGLDDVSLAAAAC [K557A;R558A;G559A;R560A]
MAVLLAAVLASSLYLQVAADFDGRWPRQIVSSIGLCRYGGRIDCCWGWARQSWGQCQPVCQPQCKHGECVGPNKCKCHPGFAGKTCNQDLNECGLKPRPCKHRCMNTFGSYKCYCLNGYMLLPDGSCSSALSCSMANCQYGCDVVKGQVRCQCPSPGLQLAPDGRTCVDIDECATGRVSCPRFRQCVNTFGSYICKCHTGFDLMYIGGKYQCHDIDECSLGQHQCSSYARCYNIHGSYKCQCRDGYEGDGLNCVYIPKVMIEPSGPIHMPERNGTISKGDGGHANRIPDAGSTRWPLKTPYIPPVITNRPTSKPTTRPTPNPTPQPTPPPPPPLPTEPRTTPLPPTPERPSTRPTTIAPATSTTTRVITVDNRIQTDPQKPRGDVFIPRQPTNDLFEIFEIERGVSADEEVKDDPGILIHSCNFDHGLCGWIREKDSDLHWETARDPAGGQYLTVSAAKAPGGKAARLVLRLGHLMHSGDLCLSFRHKVTGLHSGTLQVFVRKHGTHGAALWGRNGGHGWRQTQITLAGADVKSVIFKGEKRRGHTGEIGLDDVSLKRGRC [R528A]
MAVLLAAVLASSLYLQVAADFDGRWPRQIVSSIGLCRYGGRIDCCWGWARQSWGQCQPVCQPQCKHGECVGPNKCKCHPGFAGKTCNQDLNECGLKPRPCKHRCMNTFGSYKCYCLNGYMLLPDGSCSSALSCSMANCQYGCDVVKGQVRCQCPSPGLQLAPDGRTCVDIDECATGRVSCPRFRQCVNTFGSYICKCHTGFDLMYIGGKYQCHDIDECSLGQHQCSSYARCYNIHGSYKCQCRDGYEGDGLNCVYIPKVMIEPSGPIHMPERNGTISKGDGGHANRIPDAGSTRWPLKTPYIPPVITNRPTSKPTTRPTPNPTPQPTPPPPPPLPTEPRTTPLPPTPERPSTRPTTIAPATSTTTRVITVDNRIQTDPQKPRGDVFIPRQPTNDLFEIFEIERGVSADEEVKDDPGILIHSCNFDHGLCGWIREKDSDLHWETAADPAGGQYLTVSAAKAPGGKAARLVLRLGHLMHSGDLCLSFRHKVTGLHSGTLQVFVRKHGTHGAALWGRNGGHGWRQTQITLRGADVKSVIFKGEKRRGHTGEIGLDDVSLKRGRC [R445A]
MAVLLAAVLASSLYLQVAADFDGRWPRQIVSSIGLCRYGGRIDCCWGWARQSWGQCQPVCQPQCKHGECVGPNKCKCHPGFAGKTCNQDLNECGLKPRPCKHRCMNTFGSYKCYCLNGYMLLPDGSCSSALSCSMANCQYGCDVVKGQVRCQCPSPGLQLAPDGRTCVDIDECATGRVSCPRFRQCVNTFGSYICKCHTGFDLMYIGGKYQCHDIDECSLGQHQCSSYARCYNIHGSYKCQCRDGYEGDGLNCVYIPKVMIEPSGPIHMPERNGTISKGDGGHANRIPDAGSTRWPLKTPYIPPVITNRPTSKPTTRPTPNPTPQPTPPPPPPLPTEPRTTPLPPTPERPSTRPTTIAPATSTTTRVITVDNRIQTDPQKPRGDVFIPRQPTNDLFEIFEIERGVSADEEVKDDPGILIHSCNFDHGLCGWIREKDSDLHWETARDPAGGQYLTVSAAKAPGGKAARLVLALGHLMHSGDLCLSFRHKVTGLHSGTLQVFVRKHGTHGAALWGRNGGHGWRQTQITLRGADVKSVIFKGEKRRGHTGEIGLDDVSLKRGRC [R471A]
